B1: Serine/threonine-protein kinase TBK1 (Mus musculus), Q9WUN2 (parent)
chain: MQSTSNHLWLLSDILGQGATANVFRGRHKKTGDLYAVKVFNNISFLRPVDVQMREFEVLKKLNHKNIVKLFAIEEETTTRHKVLIMEFCPCGSLYTVLEEPSNAYGLPESEFLIVLRDVVGGMNHLRENGIVHRDIKPGNIMRVIGEDGQSVYKLTDFGAARELEDDEQFVSLYGTEEYLHPDMYERAVLRKDHQKKYGATVDLWSVGVTFYHAATGSLPFRPFEGPRRNKEVMYKIITGKPSGAISGVQKAENGPIDWSGDMPLSCSLSQGLQALLTPVLANILEADQEKCWGFDQFFAETSDVLHRMVIHVFSLQHMTAHKIYIHSYNTAAVFHELVYKQTKIVSSNQELIYEGRRLVLELGRLAQHFPKTTEENPIFVTSREQLNTVGLRYEKISLPKIHPRYDLDGDASMAKAVTGVVCYACRTASTLLLYQELMRKGVRWLVELVKDDYNETVHKKTEVVITLDFCIRNIEKTVKVYEKLMKVNLEAAELGEISDIHTKLLRLSSSQGTIESSLQDISSRLSPGGLLADTWAHQEGTHPRDRNVEKLQVLLNCITEIYYQFKKDKAERRLAYNEEQIHKFDKQKLYYHATKAMSHFSEECVRKYEAFKDKSEEWMRKMLHLRKQLLSLTNQCFDIEEEVSKYQDYTNELQETLPQKMLAASGGVKHAMAPIYPSSNTLVEMTLGMKKLKEEMEGVVKELAENNHILERFGSLTMDGGLRNVDCL
partner: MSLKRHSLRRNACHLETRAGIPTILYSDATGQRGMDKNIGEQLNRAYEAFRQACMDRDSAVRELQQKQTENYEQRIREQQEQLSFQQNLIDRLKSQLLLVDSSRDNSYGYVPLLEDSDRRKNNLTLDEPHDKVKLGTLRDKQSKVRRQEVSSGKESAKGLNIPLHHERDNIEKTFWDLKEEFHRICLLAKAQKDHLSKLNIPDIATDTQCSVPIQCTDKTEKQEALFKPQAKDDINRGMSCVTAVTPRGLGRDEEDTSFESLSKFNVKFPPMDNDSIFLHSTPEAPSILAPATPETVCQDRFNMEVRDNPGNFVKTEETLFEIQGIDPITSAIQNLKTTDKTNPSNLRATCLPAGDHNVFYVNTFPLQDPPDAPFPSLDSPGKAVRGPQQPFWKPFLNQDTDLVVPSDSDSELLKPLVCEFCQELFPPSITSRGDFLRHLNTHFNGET

Variants of: B1
Conditions: with tank_mouse Tank

| effect of a mutation on the interaction | Variant |
| --- | --- |
| decreasing interaction | S172A |
